Three molecules from paper PMC10163214, “E. coli allantoinase is activated by the downstream metabolic enzyme, glycerate kinase, and stabilizes the putative allantoin transporter by direct binding” (Scientific Reports, 2023) can be followed below.

As usually defined, the Km is the substrate concentration at which the rate is half of its maximum.

For data set [1], the target named is T1, AllB (allantoinase; AllB_Zn, AllB_Mn) (Escherichia coli, UniProt P77671).
T1 construct: full length; expressed in E. coli; tetrameric
T1 sequence (P77671 1-453): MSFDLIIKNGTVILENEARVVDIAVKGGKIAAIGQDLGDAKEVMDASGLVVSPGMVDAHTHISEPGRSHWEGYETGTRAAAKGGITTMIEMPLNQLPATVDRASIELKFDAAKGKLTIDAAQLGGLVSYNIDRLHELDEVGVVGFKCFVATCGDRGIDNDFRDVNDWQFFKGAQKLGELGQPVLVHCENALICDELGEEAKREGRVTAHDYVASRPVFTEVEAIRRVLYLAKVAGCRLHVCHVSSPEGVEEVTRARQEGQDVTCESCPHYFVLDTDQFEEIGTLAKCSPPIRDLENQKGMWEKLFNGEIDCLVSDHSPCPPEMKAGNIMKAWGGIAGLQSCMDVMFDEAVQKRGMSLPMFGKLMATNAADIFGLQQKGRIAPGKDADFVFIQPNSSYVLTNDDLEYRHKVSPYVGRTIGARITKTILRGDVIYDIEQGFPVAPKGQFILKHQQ
The data set can be described thus: absorbance of allantoate at […] nm. The data set is classed as biochemical. The following applies: 0.1 mM ZnSO4, no GlxK, no glyoxylate, pH 8.0.

The next data set concerns the target T2, AllW (YbbW) (Escherichia coli, UniProt P75712).
T2 construct: native chromosomal AllW in delta-allC cells, stabilised by AllB; compared with allW and allB deletion strains; with Allantoinase
Briefly: cellular allantoin uptake by GC-MS. In kind it is cell-based. The note with it: 1 mM allantoin, PBS with glucose, delta-allC cells; uptake lost in allW or allB deletion.

Substrate in data set [2]: O=C(O)[C@H](O)CO
The data set can be described thus: purified protein. In kind it is biochemical, Escherichia coli. The following applies: 10 mM MgSO4, 1.2 mM ATP, pH 7.4, 37 °C.

Substrate in data set [3]: NC(=O)NC1NC(=O)NC1=O
Briefly: purified protein. In kind it is biochemical, Escherichia coli. The note with it: AllB_Mn, 0.2 mM MnSO4, no GlxK, 0.9 mM glyoxylate present, pH 8.0, 37 °C.

T2 sequence (P75712 whole entry): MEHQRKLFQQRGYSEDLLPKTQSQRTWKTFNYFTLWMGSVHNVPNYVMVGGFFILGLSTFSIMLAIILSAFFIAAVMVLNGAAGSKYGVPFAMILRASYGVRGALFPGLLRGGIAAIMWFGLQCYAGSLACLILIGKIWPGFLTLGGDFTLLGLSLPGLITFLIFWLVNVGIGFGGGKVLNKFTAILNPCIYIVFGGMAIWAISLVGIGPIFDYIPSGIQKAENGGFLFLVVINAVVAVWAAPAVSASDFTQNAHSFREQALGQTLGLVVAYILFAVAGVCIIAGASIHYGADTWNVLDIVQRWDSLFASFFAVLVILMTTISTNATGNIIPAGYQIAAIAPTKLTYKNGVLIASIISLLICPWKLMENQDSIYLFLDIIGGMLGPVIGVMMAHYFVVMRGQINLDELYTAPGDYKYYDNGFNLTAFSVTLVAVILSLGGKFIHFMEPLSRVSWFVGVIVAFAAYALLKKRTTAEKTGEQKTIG

Consider `NC(=O)NC1NC(=O)NC1=O` (stereo not drawn) [allantoin], for which the Km in data set [1] is greater than 15 mM. Further, the “cellular allantoin uptake by GC-MS” value at AllW (YbbW) is reported as “no allantoin uptake was detected in either the AW12 (ΔallC–ΔallB) or the AW13 (ΔallC–ΔallW) mutant”.

B1: GlxK (glycerate 2-kinase) (Escherichia coli K-12) (protein)
chain: MKIVIAPDSFKESLSAEKCCQAIKAGFSTLFPDANYICLPIADGGEGTVDAMVAATGGNIVTLEVCGPMGEKVNAFYGLTGDGKTAVIEMAAASGLMLVAPEKRNPLLASSFGTGELIRHALDNDIRHIILGIGGSATVDGGMGMAQALGVRFLDADGQALAANGGNLARVASIEMDECDPRLANCHIEVACDVDNPLVGARGAAAVFGPQKGATPEMVEELEQGLQNYARVLQQQTEINVCQMAGGGAAGGMGIAAAVFLNADIKPGIEIVLNAVNLAQAVQGAALVITGEGRIDSQTAGGKAPLGVASVAKQFNVPVIGIAGVLGDGVEVVHQYGIDAVFSILPRLAPLAEVLASGETNLFNSARNIACAIKIGQGIKN
notes: full length, N-terminal His6 tag, expressed in E. coli; GlxK-His 41 kDa
Regarding B1, in “purified protein [2]”, the Km amounted to 0.085 ± 0.009 mM and the Vmax is listed as 4.6 ± 0.3 U/mg protein.

B2: AllB (allantoinase; AllB_Zn, AllB_Mn) (Escherichia coli K-12) (protein)
chain: T1 sequence (P77671 1-453)
notes: full length; expressed in E. coli; tetrameric
In the case of B2, in the data set “purified protein [3]”, the Km was 5.8 ± 1.2 mM and the Vmax was 246 ± 32 U/mg protein.
